What was measured:
Assay in all cases: Microtiter plate biofilm detachment assay
[1] = system: pre-formed S. lugdunensis biofilms; assay type: cell-based, Staphylococcus lugdunensis; conditions: 2 hours at 37° C.; safranin OD492; 15 clinical isolates
Method: 40 mM sodium metaperiodate (NaIO4, Sigma-Aldrich) in water, 40 μg/mL purified recombinant dispersin B (obtained from Kane Biotech Inc., Winnipeg, Manitoba, Canada) in sodium phosphate buffer (50 mM sodium phosphate (pH 5.8), 100 mM NaCl), 100 μg/mL proteinase K (Roche Applied Science) in 10 mM Tris-HCl pH 7.5, 10 U/mL trypsin (Promega Corp., Madison, Wis.) in 10 mM Tris-HCl pH 7.5, 100 μg/mL chymotrypsin (Sigma-Aldrich) in 10 mM Tris-HCl pH 7.5, and 100 μg/mL thermolysin (Sigma-Aldrich) in 10 mM Tris-HCl pH 7.5 were tested for their ability to detach pre-formed S. lugdunensis biofilms from polystyrene microtiter plate wells. For certain experiments, proteinase K was inactivated by boiling for 40 minutes.
Biofilms grown in TSBgluc1% were formed in wells of microtiter plates and washed twice with deionized water, as described above for the microtiter plate biofilm formation assay. 100 μL of NaIO4, enzyme, or suitable control was carefully added so as not to mechanically detach biofilms on the bottoms of wells. Plates were incubated at 37° C. for 2 hours, and contents of wells were discarded and washed twice with deionized water. Plates were air-dried overnight, stained with 0.1% safranin for 1 minute, and processed as described above to quantify the amount of stained biofilm remaining after treatment, relative to treatment with the control reagent. Four wells were measured for each treatment condition. Assays were repeated two or three times on separate days with similar results.

[2] = system: pre-formed biofilms of S. carnosus TM300+pCN27; assay type: cell-based, Staphylococcus carnosus; conditions: 2 hours at 37° C.; safranin OD492
[3] = system: pre-formed biofilms of S. epidermidis RP62A; assay type: cell-based, Staphylococcus epidermidis; conditions: 2 hours at 37° C.; safranin OD492

| Molecule | biofilm detachment compared to buffer [1] | biofilm detachment compared to buffer [2] | biofilm detachment compared to buffer [3] |
| --- | --- | --- | --- |
| thermolysin: protease (Sigma-Aldrich), 100 μg/mL in 10 mM Tris-HCl pH 7.5 (protein, UniProt P00800 233-548, looked up) Thermolysin: ITGTSTVGVGRGVLGDQKNINTTYSTYYYLQDNTRGNGIFTYDAKYRTTLPGSLWADADNQFFASYDAPAVDAHYYAGVTYDYYKNVHNRLSYDGNNAAIRSSVHYSQGYNNAFWNGSQMVYGDGDGQTFIPLSGGIDVVAHELTHAVTDYTAGLIYQNESGAINEAISDIFGTLVEFYANKNPDWEIGEDVYTPGISGDSLRSMSDPAKYGDPDHYSKRYTGTQDNGGVHINSGIINKAAYLISQGGTHYGVSVVGIGRDKLGKIFYRALTQYLTPTSNFSQLRAAAVQSATDLYGSTSQEVASVKQAFDAVGVK | detach S. lugdunensis biofilms selectively |  |  |
| Proteinase K: protease (Roche Applied Science), 100 μg/mL in 10 mM Tris-HCl pH 7.5 (protein, UniProt P06873 106-384, looked up) Proteinase K: AAQTNAPWGLARISSTSPGTSTYYYDESAGQGSCVYVIDTGIEASHPEFEGRAQMVKTYYYSSRDGNGHGTHCAGTVGSRTYGVAKKTQLFGVKVLDDNGSGQYSTIIAGMDFVASDKNNRNCPKGVVASLSLGGGYSSSVNSAAARLQSSGVMVAVAAGNNNADARNYSPASEPSVCTVGASDRYDRRSSFSNYGSVLDIFGPGTSILSTWIGGSTRSISGTSMATPHVAGLAAYLMTLGKTTAASACRYIADTANKGDLSNIPFGTVNLLAYNNYQA | completely removed | no effect | no effect |
| heat-inactivated proteinase K: proteinase K inactivated by boiling for 40 minutes (protein, UniProt P06873 106-384, looked up, heat-inactivated) Proteinase K: AAQTNAPWGLARISSTSPGTSTYYYDESAGQGSCVYVIDTGIEASHPEFEGRAQMVKTYYYSSRDGNGHGTHCAGTVGSRTYGVAKKTQLFGVKVLDDNGSGQYSTIIAGMDFVASDKNNRNCPKGVVASLSLGGGYSSSVNSAAARLQSSGVMVAVAAGNNNADARNYSPASEPSVCTVGASDRYDRRSSFSNYGSVLDIFGPGTSILSTWIGGSTRSISGTSMATPHVAGLAAYLMTLGKTTAASACRYIADTANKGDLSNIPFGTVNLLAYNNYQA | detachment effect was found to be abolished |  |  |
